Laboratory results taken from US20250076311A1 (Chugai, published 2025).
Residue numbers refer to the chain shown, from its start. Numbers in names are those of the source.

T1: human FcγRIIb extracellular domain, His-tagged (human, UniProt P31994 43-217)
T1 construct: also called human FcgRIIb
T1 sequence: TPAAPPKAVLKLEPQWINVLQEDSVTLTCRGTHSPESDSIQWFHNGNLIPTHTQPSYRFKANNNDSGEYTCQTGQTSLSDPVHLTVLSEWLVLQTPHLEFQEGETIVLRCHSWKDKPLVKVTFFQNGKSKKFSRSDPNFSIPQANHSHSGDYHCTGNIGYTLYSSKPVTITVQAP

T2: human FcγRIIaH extracellular domain, His-tagged (human, UniProt P12318 34-217)
T2 construct: also called human FcgRIIaH; FcγRIIa type H
T2 sequence: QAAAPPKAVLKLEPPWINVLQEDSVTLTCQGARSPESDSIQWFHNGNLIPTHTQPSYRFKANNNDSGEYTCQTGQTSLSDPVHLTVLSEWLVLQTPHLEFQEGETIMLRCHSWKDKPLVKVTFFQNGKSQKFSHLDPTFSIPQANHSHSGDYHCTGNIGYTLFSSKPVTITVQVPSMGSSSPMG

T3: human FcγRIIaR extracellular domain, His-tagged (human, UniProt P12318 34-217)
T3 construct: also called human FcgRIIaR; FcγRIIa type R
T3 chain: T2 sequence with H134R

T4: cynomolgus monkey FcγRIIIaS extracellular domain with C-terminal His-tag (cynomolgus monkey, UniProt Q8SPW2 21-206 at identity 1.00))
T4 construct: also called cyno FcγRIIIaS; FcgRIIIaS
T4 chain: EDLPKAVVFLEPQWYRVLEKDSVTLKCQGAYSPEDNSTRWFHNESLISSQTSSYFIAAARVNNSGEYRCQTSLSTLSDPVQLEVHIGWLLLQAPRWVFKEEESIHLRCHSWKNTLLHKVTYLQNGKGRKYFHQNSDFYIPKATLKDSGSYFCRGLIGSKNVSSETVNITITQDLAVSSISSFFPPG

B1: GpH7-B3 G236A / GpL16-k0 (antibody, human IgG1, kappa)
heavy: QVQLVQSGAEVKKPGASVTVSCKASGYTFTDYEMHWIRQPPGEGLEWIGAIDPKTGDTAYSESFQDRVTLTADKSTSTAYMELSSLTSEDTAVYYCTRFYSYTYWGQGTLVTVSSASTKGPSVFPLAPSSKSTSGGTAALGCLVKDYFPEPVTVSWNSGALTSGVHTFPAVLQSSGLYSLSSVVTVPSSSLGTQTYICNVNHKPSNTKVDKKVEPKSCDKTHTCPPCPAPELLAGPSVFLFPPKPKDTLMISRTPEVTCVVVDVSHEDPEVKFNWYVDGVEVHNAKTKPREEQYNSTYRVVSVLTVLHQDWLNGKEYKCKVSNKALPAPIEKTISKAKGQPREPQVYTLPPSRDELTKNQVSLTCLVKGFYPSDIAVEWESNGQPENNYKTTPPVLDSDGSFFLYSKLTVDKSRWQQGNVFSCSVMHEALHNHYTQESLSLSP
light: DIVMTQSPLSLPVTPGEPASISCQASESLVHSNRNTYLHWYLQKPGQSPQLLIYKVSNRFSGVPDRFSGSGSGTDFTLKISRVEAEDVGVYYCSQNTHVPPTFGQGTKVEIERTVAAPSVFIFPPSDEQLKSGTASVVCLLNNFYPREAKVQWKVDNALQSGNSQESVTEQDSKDSTYSLSSTLTLSKADYEKHKVYACEVTHQGLSSPVTKSFNRGEC
notes: also called B3 variant G236A
B2: GpH7-B3 G236D / GpL16-k0 (antibody, human IgG1, kappa)
heavy: not shown
light: B1 light
notes: also called B3 variant G236D
B3: GpH7-B3 G236E / GpL16-k0 (antibody, human IgG1, kappa)
heavy: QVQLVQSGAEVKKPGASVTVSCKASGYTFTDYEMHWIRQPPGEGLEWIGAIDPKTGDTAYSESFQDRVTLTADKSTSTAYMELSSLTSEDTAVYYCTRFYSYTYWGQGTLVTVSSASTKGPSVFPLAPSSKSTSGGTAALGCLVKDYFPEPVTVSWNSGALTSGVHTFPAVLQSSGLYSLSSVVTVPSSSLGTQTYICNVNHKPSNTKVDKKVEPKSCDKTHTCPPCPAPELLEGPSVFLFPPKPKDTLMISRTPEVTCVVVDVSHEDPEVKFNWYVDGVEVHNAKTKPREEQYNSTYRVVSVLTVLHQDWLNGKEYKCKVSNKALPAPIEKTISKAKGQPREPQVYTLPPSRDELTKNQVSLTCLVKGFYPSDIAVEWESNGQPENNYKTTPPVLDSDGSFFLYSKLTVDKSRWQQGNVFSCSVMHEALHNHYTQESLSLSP
light: B1 light
notes: also called B3 variant G236E
B4: GpH7-B3 G236S / GpL16-k0 (antibody, human IgG1, kappa)
heavy: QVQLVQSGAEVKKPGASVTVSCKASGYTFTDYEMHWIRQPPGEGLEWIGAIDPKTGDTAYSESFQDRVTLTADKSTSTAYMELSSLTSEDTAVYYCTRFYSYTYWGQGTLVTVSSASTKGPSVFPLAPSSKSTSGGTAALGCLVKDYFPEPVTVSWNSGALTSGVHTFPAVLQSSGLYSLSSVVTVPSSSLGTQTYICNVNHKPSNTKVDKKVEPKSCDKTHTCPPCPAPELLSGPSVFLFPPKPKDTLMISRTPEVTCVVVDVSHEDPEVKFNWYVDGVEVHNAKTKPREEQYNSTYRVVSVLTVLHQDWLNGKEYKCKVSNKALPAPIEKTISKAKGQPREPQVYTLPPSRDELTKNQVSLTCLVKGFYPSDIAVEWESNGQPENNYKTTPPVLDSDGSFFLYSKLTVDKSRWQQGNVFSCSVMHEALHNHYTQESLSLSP
light: B1 light
notes: also called B3 variant G236S
B5: GpH7-B3 H268D / GpL16-k0 (antibody, human IgG1, kappa)
heavy: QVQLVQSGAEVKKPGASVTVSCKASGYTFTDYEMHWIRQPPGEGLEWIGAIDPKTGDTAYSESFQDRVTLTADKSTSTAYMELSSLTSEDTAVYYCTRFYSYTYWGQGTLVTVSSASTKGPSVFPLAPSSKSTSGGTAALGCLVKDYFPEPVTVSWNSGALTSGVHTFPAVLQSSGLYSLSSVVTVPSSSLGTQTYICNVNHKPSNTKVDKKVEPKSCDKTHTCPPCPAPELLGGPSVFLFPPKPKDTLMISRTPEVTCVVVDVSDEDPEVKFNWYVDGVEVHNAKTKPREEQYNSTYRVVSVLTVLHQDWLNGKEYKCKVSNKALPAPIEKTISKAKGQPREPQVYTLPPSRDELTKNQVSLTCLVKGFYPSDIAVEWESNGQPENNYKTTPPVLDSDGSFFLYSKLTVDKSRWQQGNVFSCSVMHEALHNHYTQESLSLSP
light: B1 light
notes: also called B3 variant H268D
B6: GpH7-B3 H268E / GpL16-k0 (antibody, human IgG1, kappa)
heavy: not shown
light: B1 light
notes: also called B3 variant H268E
B7: GpH7-B3 I332D / GpL16-k0 (antibody, human IgG1, kappa)
heavy: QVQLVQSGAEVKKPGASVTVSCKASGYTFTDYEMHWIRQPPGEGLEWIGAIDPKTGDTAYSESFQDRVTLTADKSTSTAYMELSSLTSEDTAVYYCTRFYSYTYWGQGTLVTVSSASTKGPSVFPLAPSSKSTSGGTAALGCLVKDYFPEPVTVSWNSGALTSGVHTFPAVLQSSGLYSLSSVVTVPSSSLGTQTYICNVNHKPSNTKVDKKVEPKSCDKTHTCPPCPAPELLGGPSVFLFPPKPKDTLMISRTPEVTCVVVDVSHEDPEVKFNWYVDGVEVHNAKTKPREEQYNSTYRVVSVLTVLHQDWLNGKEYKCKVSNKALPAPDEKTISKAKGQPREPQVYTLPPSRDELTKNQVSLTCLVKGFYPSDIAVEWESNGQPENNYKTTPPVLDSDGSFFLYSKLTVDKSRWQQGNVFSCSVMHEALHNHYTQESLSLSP
light: B1 light
notes: also called B3 variant I332D
B8: GpH7-B3 K326T / GpL16-k0 (antibody, human IgG1, kappa)
heavy: not shown
light: B1 light
notes: also called B3 variant K326T
B9: GpH7-B3 K334D / GpL16-k0 (antibody, human IgG1, kappa)
heavy: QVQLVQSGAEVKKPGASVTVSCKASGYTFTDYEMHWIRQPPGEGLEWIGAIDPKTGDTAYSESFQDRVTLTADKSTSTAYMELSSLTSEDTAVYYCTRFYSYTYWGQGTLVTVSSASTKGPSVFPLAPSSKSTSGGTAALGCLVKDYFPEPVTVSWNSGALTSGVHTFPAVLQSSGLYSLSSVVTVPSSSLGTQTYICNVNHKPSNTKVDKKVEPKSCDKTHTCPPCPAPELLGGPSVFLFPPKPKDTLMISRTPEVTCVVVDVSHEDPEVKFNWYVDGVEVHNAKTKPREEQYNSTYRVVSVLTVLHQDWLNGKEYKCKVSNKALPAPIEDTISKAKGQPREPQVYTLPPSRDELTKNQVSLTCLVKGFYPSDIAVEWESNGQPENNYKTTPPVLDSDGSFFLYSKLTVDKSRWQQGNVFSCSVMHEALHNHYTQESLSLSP
light: B1 light
notes: also called B3 variant K334D
B10: GpH7-B3 K334M / GpL16-k0 (antibody, human IgG1, kappa)
heavy: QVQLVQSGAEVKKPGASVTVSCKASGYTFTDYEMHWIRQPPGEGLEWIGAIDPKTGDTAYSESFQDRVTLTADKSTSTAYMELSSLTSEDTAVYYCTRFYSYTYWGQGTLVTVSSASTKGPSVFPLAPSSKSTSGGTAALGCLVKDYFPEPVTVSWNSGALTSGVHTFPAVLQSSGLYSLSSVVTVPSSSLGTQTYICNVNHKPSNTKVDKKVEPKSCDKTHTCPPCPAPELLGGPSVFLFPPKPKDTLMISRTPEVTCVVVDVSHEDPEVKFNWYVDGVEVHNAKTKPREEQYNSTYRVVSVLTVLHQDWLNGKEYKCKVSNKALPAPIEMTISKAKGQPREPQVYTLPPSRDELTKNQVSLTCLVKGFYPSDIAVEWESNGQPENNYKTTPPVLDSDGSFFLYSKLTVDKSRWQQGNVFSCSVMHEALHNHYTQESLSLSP
light: B1 light
notes: also called B3 variant K334M
B11: GpH7-B3 K334V / GpL16-k0 (antibody, human IgG1, kappa)
heavy: not shown
light: B1 light
notes: also called B3 variant K334V
B12: GpH7-B3 K334Y / GpL16-k0 (antibody, human IgG1, kappa)
heavy: not shown
light: B1 light
notes: also called B3 variant K334Y
B13: GpH7-B3 L234W / GpL16-k0 (antibody, human IgG1, kappa)
heavy: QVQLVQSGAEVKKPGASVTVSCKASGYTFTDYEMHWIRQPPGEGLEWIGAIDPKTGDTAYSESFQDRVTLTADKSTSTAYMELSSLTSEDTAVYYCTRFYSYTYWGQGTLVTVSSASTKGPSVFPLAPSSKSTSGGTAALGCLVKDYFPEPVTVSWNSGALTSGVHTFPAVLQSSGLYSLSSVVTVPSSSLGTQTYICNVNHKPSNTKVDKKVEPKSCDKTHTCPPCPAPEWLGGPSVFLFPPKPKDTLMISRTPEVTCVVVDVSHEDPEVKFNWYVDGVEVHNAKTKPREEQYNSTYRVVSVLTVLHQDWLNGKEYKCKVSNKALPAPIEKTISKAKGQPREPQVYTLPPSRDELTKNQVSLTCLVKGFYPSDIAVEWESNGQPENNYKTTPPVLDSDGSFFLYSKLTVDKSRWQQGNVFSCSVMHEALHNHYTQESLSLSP
light: B1 light
notes: also called B3 variant L234W
B14: GpH7-B3 L234Y / GpL16-k0 (antibody, human IgG1, kappa)
heavy: not shown
light: B1 light
notes: also called B3 variant L234Y
B15: GpH7-B3 L235W / GpL16-k0 (antibody, human IgG1, kappa)
heavy: not shown
light: B1 light
notes: also called B3 variant L235W
B16: GpH7-B3 L328T / GpL16-k0 (antibody, human IgG1, kappa)
heavy: not shown
light: B1 light
notes: also called B3 variant L328T
B17: GpH7-B3 P271D / GpL16-k0 (antibody, human IgG1, kappa)
heavy: not shown
light: B1 light
notes: also called B3 variant P271D
B18: GpH7-B3 P271G / GpL16-k0 (antibody, human IgG1, kappa)
heavy: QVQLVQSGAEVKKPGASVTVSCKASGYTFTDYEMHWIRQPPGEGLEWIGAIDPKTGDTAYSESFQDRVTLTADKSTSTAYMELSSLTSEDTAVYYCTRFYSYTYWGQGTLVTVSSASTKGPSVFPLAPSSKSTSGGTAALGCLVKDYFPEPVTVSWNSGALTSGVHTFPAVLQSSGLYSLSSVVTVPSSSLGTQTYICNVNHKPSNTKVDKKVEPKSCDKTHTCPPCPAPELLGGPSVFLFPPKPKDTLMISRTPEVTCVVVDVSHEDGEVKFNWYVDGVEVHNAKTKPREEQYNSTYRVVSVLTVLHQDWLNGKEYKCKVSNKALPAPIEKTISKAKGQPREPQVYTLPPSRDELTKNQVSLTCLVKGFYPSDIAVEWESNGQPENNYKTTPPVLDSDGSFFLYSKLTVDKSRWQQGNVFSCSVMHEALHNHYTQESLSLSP
light: B1 light
notes: also called B3 variant P271G
B19: GpH7-B3 P331E / GpL16-k0 (antibody, human IgG1, kappa)
heavy: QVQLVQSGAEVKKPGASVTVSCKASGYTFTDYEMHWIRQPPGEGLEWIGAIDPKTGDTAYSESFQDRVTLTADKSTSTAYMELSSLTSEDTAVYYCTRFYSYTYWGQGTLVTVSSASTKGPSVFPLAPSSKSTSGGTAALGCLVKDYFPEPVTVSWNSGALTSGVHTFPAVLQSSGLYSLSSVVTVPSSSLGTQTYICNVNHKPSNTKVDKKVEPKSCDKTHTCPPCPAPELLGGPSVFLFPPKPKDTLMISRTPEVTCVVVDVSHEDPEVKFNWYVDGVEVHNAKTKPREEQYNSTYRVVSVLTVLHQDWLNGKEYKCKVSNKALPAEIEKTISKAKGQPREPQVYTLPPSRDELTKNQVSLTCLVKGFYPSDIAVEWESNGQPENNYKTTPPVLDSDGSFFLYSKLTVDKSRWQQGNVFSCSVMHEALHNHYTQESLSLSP
light: B1 light
notes: also called B3 variant P331E
B20: GpH7-B3 Q295L / GpL16-k0 (antibody, human IgG1, kappa)
heavy: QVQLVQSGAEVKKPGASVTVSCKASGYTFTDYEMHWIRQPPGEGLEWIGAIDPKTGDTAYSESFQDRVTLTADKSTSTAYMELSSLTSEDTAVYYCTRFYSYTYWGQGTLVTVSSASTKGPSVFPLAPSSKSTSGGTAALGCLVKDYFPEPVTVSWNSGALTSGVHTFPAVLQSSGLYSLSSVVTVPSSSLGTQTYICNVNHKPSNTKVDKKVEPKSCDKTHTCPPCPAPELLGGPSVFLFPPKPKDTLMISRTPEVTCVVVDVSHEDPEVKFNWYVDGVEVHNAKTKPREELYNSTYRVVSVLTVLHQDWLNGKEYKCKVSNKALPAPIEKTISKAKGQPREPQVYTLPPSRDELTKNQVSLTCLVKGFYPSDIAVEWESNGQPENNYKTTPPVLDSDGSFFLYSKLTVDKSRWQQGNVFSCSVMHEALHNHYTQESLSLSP
light: B1 light
notes: also called B3 variant Q295L
B21: M103205H795-MY310 (heavy chain) with M103202L889-SK1 (light chain) (antibody, human IgG1, kappa, name in EU numbering)
heavy: QVTLKESGPVLVKPTETLTLTCTVSGIDLSHDDISWVRQAPGKGLEWVGIISYAGSTYYASWAKGRLTISKDTSKNQVVLTMTNMDPVDTATYYCARGVPAYSHGGDLWGQGTLVTVSSASTKGPSVFPLAPSSKSTSGGTAALGCLVKDYFPEPVTVSWNSGALTSGVHTFPAVLQSSGLYSLSSVVTVPSSSLGTQTYICNVNHKPSNTKVDKKVEPKSCDKTHTCPPCPAPELLTGPSVFLFPPKPKDTLMISRTPEVTCVVVDVSEEDPEVKFNWYVDGVEVHNAKTKPREEQYNSTYRVVSVLTVLHQDWLNGKEYKCKVSNTALPKPIEKTISKAKGQPREPQVYTLPPSREEMTKNQVSLTCLVKGFYPSDIAVEWESNGQPENNYKTTPPVLDSDGSFFLYSKLTVDKSRWQQGNVFSCSVMHEALHNHYTQKSLSLSP
light: DIVMTQSPATLSLSPGERATLSCTSSQSVYHANWLSWFQQKPGQPPKLLIYWASTLAYGVPSRFSGSGSGTDFTLTISSLQPEDAATYYCAGGYGGGRYAFGQGTKVEIKRTVAAPSVFIFPPSDEQLKSGTASVVCLLNNFYPREAKVQWKVDNALQSGNSQESVTEQDSKDSTYSLSSTLTLSKADYEKHKVYACEVTHQGLSSPVTKSFNRGEC
notes: Substitutions introduced into M103205H795-SG1; positions in EU numbering
B22: M103205H795-MY311 (heavy chain) with M103202L889-SK1 (light chain) (antibody, human IgG1, kappa, name in EU numbering)
heavy: B21 heavy with Q297L, T328K
light: B21 light
notes: as for B21
B23: M103205H795-MY312 (heavy chain) with M103202L889-SK1 (light chain) (antibody, human IgG1, kappa, name in EU numbering)
heavy: B21 heavy with P398M
light: B21 light
notes: as for B21

Each binder was assayed against T1, human FcγRIIb extracellular domain, … (assay: SPR (Biacore), 25C, FcgR bound per antibody captured).

First: B1
Second: B2
The “Binding to human FcgRs (parent B3 = 100)” value of the first is lower: 94 for the first, 212 for the second.

First: B3
Second: B4
The “Binding to human FcgRs (parent B3 = 100)” value of the first is higher: 117 for the first, 87 for the second.

Compared with B5, B6 is lower in “Binding to human FcgRs (parent B3 = 100)” value: 307 for the first, 283 for the second.

First: B7
Second: B8
The “Binding to human FcgRs (parent B3 = 100)” value of the first is higher: 198 for the first, 195 for the second.

First: B9
Second: B10
The “Binding to human FcgRs (parent B3 = 100)” value of the first is lower: 108 for the first, 148 for the second.

First: B11
Second: B12
The “Binding to human FcgRs (parent B3 = 100)” value of the first is higher: 184 for the first, 160 for the second.

First: B13
Second: B14
The “Binding to human FcgRs (parent B3 = 100)” value of the first is higher: 90 for the first, 55 for the second.

First: B15
Second: B16
The “Binding to human FcgRs (parent B3 = 100)” value of the first is lower: 130 for the first, 179 for the second.

Compared with B17, B18 is higher in “Binding to human FcgRs (parent B3 = 100)” value: 110 for the first, 252 for the second.

Compared with B19, B20 is higher in “Binding to human FcgRs (parent B3 = 100)” value: 100 for the first, 156 for the second.

Each binder was assayed against T2, human FcγRIIaH extracellular domain, … in the same assay as above.

Going from B1 to B2, the “Binding to human FcgRs (parent B3 = 100)” value falls from 165 to 109.

First: B3
Second: B4
The “Binding to human FcgRs (parent B3 = 100)” value of the first is lower: 142 for the first, 147 for the second.

Going from B5 to B6, the “Binding to human FcgRs (parent B3 = 100)” value falls from 173 to 169.

Compared with B7, B8 is higher in “Binding to human FcgRs (parent B3 = 100)” value: 129 for the first, 138 for the second.

Compared with B9, B10 is higher in “Binding to human FcgRs (parent B3 = 100)” value: 97 for the first, 151 for the second.

Compared with B11, B12 is lower in “Binding to human FcgRs (parent B3 = 100)” value: 172 for the first, 157 for the second.

First: B13
Second: B14
The “Binding to human FcgRs (parent B3 = 100)” value of the first is higher: 64 for the first, 38 for the second.

Going from B15 to B16, the “Binding to human FcgRs (parent B3 = 100)” value rises from 136 to 156.

Going from B18 to B19, the “Binding to human FcgRs (parent B3 = 100)” value falls from 152 to 96.

For B20, the “Binding to human FcgRs (parent B3 = 100)” value was 128.

Target: T3, human FcγRIIaR extracellular domain, …
Test: as above

Going from B1 to B2, the “Binding to human FcgRs (parent B3 = 100)” value falls from 168 to 91.

Compared with B3, B4 is higher in “Binding to human FcgRs (parent B3 = 100)” value: 131 for the first, 161 for the second.

Compared with B5, B6 is lower in “Binding to human FcgRs (parent B3 = 100)” value: 142 for the first, 132 for the second.

Compared with B7, B8 is lower in “Binding to human FcgRs (parent B3 = 100)” value: 139 for the first, 127 for the second.

Compared with B9, B10 is higher in “Binding to human FcgRs (parent B3 = 100)” value: 72 for the first, 127 for the second.

Going from B11 to B12, the “Binding to human FcgRs (parent B3 = 100)” value falls from 132 to 131.

Compared with B13, B14 is lower in “Binding to human FcgRs (parent B3 = 100)” value: 63 for the first, 50 for the second.

First: B15
Second: B16
The “Binding to human FcgRs (parent B3 = 100)” value of the first is lower: 128 for the first, 135 for the second.

Going from B17 to B18, the “Binding to human FcgRs (parent B3 = 100)” value rises from 55 to 130.

First: B19
Second: B20
The “Binding to human FcgRs (parent B3 = 100)” value of the first is lower: 67 for the first, 148 for the second.

The binders below were run against T5, human FcγRIIIaV extracellular domain, His-tagged (human, UniProt P08637 17-208) in the same assay as above.
T5 construct: also called human FcgRIIIaV

Going from B1 to B2, the “Binding to human FcgRs (parent B3 = 100)” value falls from 65 to 25.

B3 and B4 are the same in “Binding to human FcgRs (parent B3 = 100)” value: 33 for the first, 33 for the second.

First: B5
Second: B6
The “Binding to human FcgRs (parent B3 = 100)” value of the first is higher: 220 for the first, 205 for the second.

Going from B7 to B8, the “Binding to human FcgRs (parent B3 = 100)” value falls from 235 to 164.

First: B9
Second: B10
The “Binding to human FcgRs (parent B3 = 100)” value of the first is lower: 155 for the first, 183 for the second.

First: B11
Second: B12
The “Binding to human FcgRs (parent B3 = 100)” value of the first is lower: 176 for the first, 188 for the second.

Going from B13 to B14, the “Binding to human FcgRs (parent B3 = 100)” value rises from 36 to 63.

Going from B15 to B16, the “Binding to human FcgRs (parent B3 = 100)” value rises from 40 to 53.

Compared with B17, B18 is higher in “Binding to human FcgRs (parent B3 = 100)” value: 85 for the first, 93 for the second.

Going from B19 to B20, the “Binding to human FcgRs (parent B3 = 100)” value rises from 46 to 135.

Target: T4, cynomolgus monkey FcγRIIIaS …
Test: SPR; KD of SG1 / KD of variant
Protocol: The kinetic analysis of interactions between these antibodies and FcγR was carried out using BIACORE® T200 or BIACORE® 4000 (GE Healthcare). HBS-EP+ (GE Healthcare) was used as the running buffer, and the measurement temperature was set to 25° C. […] After the measurement, the antibody captured on the chip was washed off by allowing reaction with 10 mM glycine-HCl, pH1.5 and 25 mM NaOH so that the chip was regenerated and used repeatedly. The sensorgrams obtained as measurement results were analyzed by the 1:1 Langmuir binding model using the BIACORE® Evaluation Software to calculate the binding rate constant ka (L/mol/s) and dissociation rate constant kd (1/s), and the dissociation constant KD (mol/L) was calculated from these values. […] Regarding such interactions, KD values were calculated using the following 1:1 binding model described in BIACORE® T100 Software Handbook BR1006-48 Edition AE.

Going from B21 to B22, the “KD fold (SG1 = 1)” value falls from 0.2 fold to 0.15 fold.

B23 was tested, and the “KD fold (SG1 = 1)” value was 0.55 fold.
